From patent US20220324969A1 (MYTHIC THERAPEUTICS, published 2022)
Numbering of substitutions follows the chain as printed. Names may count otherwise.

B1: MYT2633 (antibody, V domains shown)
VH: QVQLQQPGAEVVKPGASVKMSCKASGYTFTSYYIHWIKQTPGQGLEWVGVIYPGNDDISYNQKFQGKATLTADKSSTTAYMQLSSLTSEDSAVYYCAREVRLRYFDVWGQGTTVTVSS
VL: EIVLTQSPGSLAVSPGERVTMSCKSSQSVFFSSSQKNYLHWYQQIPGQSPRLLIYWASTRESGVPDRFTGSGSGTDFTLTISSVQPEDLAIYYCHQYLSSRTFGQGTKLEIK
notes: IgG; IMGN779 VL variant #17 (A40H)
B2: MYT2663 (antibody, V domains shown)
VH: QVQLVQSGAEVKKPGASVKVSCKASGYTFTNYDINWVRQAPGQGLEWIGWIYPGDGSTKYNEKFKAKATLTADTSTSTAYMELRSLRSDDTAVYYCASGYEDAMDYWGQGTTVTVSS
VL: DIQMTQSPSSLSASVGDRVTINCKASQDINSYLHWFQQKPGKAPKTLIYRANRLVDGVPSRFSGSGSGQDYTLTISSLQPEDFATYYCLQYDEFPLTFGGGTKVEIK
notes: IgG; vadastuximab VL variant #11 (S34H)
B3: MYT2673 (antibody, V domains shown)
VH: B2 VH
VL: B2 VL with H34S, Y91H
notes: IgG; vadastuximab VL variant #21 (Y91H)
B4: MYT1342 (antibody, V domains shown)
VH: B2 VH with D33H
VL: B2 VL with H34S
notes: IgG; vadastuximab VH variant #8 (D33H)
B5: MYT2661 (antibody, V domains shown)
VH: B2 VH
VL: B2 VL with Y32H, H34S
notes: IgG; vadastuximab VL variant #9 (Y32H)
B6: MYT1344 (antibody, V domains shown)
VH: B2 VH with N35H
VL: B2 VL with H34S
notes: IgG; vadastuximab VH variant #10 (N35H)
B7: MYT2678 (antibody, V domains shown)
VH: B2 VH
VL: B2 VL with H34S, L96H
notes: IgG; vadastuximab VL variant #26 (L96H)
B8: MYT1364 (antibody, V domains shown)
VH: B2 VH with G99H
VL: B2 VL with H34S
notes: IgG; vadastuximab VH variant #30 (G99H)
B9: MYT1362 (antibody, V domains shown)
VH: B2 VH with A97H
VL: B2 VL with H34S
notes: IgG; vadastuximab VH variant #28 (A97H)
B10: IMGN779 (antibody, V domains shown)
VH: B1 VH
VL: B1 VL with H40A
notes: Unconjugated IgG from Expi293 supernatant; entries called heavy/light chain are variable domains; also called MYT1212; IMGN779 starting ABPC
B11: Vadastuximab (antibody, V domains shown)
VH: B2 VH
VL: B2 VL with H34S
notes: IgG from Expi293 supernatant; entries called heavy/light chain are variable domains; also called MYT1334; vadastuximab starting ABPC
B12: MYT0510 (antibody, V domains shown)
VH: EVQLVQSGAEVKKPGSSVKVSCKASGYTITDSNIHWVRQAPGQSLEWIGYIYPYNGGTDYNQKFKNRATLTVDNPTNTAYMELSSLRSEDTDFYYCVHGNPWLAYWGQGTLVTVSS
VL: DIQLTQSPSTLSASVGDRVTITCRASESLDNYGIRFLTWFQQKPGKAPKLLMYAASNQGSGVPSRFSGSGSGTEFTLTISSLQPDDFATYYCQQTKEVPWSFGQGTKVEVK
notes: IgG; gemtuzumab VH variant #29 (N98H)
B13: MYT0515 (antibody, V domains shown)
VH: B12 VH with H98N, L103H
VL: B12 VL
notes: IgG; gemtuzumab VH variant #34 (L103H)
B14: MYT0512 (antibody, V domains shown)
VH: B12 VH with H98N, N100H
VL: B12 VL
notes: IgG; gemtuzumab VH variant #31 (N100H)
B15: MYT0514 (antibody, V domains shown)
VH: B12 VH with H98N, W102H
VL: B12 VL
notes: IgG; gemtuzumab VH variant #33 (W102H)
B16: MYT0517 (antibody, V domains shown)
VH: B12 VH with H98N, Y105H
VL: B12 VL
notes: IgG; gemtuzumab VH variant #36 (Y105H)
B17: MYT0516 (antibody, V domains shown)
VH: B12 VH with H98N, A104H
VL: B12 VL
notes: IgG; gemtuzumab VH variant #35 (A104H)

Each binder was assayed against T1, CD33 (Sino Biological, Cat #12238-H08H) (UniProt P20138 18-259) (assay: BLI, IgG captured on anti-human Fc sensor, pH 7.4 and pH 5.4).
T1 sequence (P20138 18-259 limits assumed): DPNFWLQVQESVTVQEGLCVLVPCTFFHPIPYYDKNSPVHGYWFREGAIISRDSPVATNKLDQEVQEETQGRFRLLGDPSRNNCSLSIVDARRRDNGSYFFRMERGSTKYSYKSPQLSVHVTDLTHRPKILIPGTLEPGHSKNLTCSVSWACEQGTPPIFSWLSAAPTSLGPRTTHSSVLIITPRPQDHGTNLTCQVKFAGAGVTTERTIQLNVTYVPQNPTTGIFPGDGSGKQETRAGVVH

| binding result | Binder |
| --- | --- |
| no binding (tested: 50 nM CD33) | B1 |
| no binding (tested: 50 nM CD33) | B2 |
| no binding (tested: 50 nM CD33) | B3 |
| no binding (tested: 50 nM CD33) | B4 |
| no binding (tested: 50 nM CD33) | B5 |
| no binding (tested: 50 nM CD33) | B6 |
| no binding (tested: 50 nM CD33) | B7 |
| no binding (tested: 50 nM CD33) | B8 |
| no binding (tested: 50 nM CD33) | B9 |

Each binder was assayed against T1, CD33 (Sino Biological, Cat #12238-H08H) (assay: BLI, IgG captured on anti-human Fc biosensor, CD33 at low pH or high pH).

| binding result | Binder |
| --- | --- |
| binds | B10 |
| binds | B11 |

Each binder was assayed against T1, CD33 (Sino Biological, Cat #12238-H08H) (assay: BLI, IgG captured on anti-human Fc sensor, 50 nM CD33, pH 7.4 vs pH 5.0).
Excerpt: Multiple CD33-binding monoclonal antibodies have been described in the literature and can be used as a template for engineering pH-dependent binding (Hamann P R et al (2002) “Gemtuzumab ozogamicin, a potent and selective anti-CD33 antibody-calicheamicin conjugate for treatment of acute myeloid leukemia.” Bioconjug Chem 13(1):47-58). Gemtuzumab (Heavy chain SEQ ID NO: 1, Light chain SEQ ID NO: 2) was selected as a CD33-binding monoclonal antibody for pH engineering via histidine scanning. Briefly, CDRs in the heavy chain were identified using the methods described by Kabat et al (Kabat et al. (1992) Sequences of Proteins of Immunological Interest, DIANE publishing) and IMGT (Lefranc M P (1999) “The IMGT unique numbering for Immunoglobulins, T cell receptors and Ig-like domains” The Immunologist 7, 132-136), and for each CDR, residues falling under either or both Kabat and IMGT CDR definitions were called as CDR residues. To generate pH-dependent sequence variants, individual amino acid residues within the heavy chain CDRs were systematically substituted with a histidine, one at a time (MYT0482-MYT0517). In cases where the starting CDR residue was a histidine, it was mutated to an alanine. Antibody variants with only one histidine or alanine mutation in a heavy chain CDR were generated by co-transfection of Expi293 cells with a) one heavy chain sequence variant, and b) the corresponding starting ABPC light chain using methods known to the art. After allowing for four days of protein expression, cell culture supernatants were collected, quantified by SDS-PAGE analysis, (FIG. 1), and the pH dependence of the variant was evaluated using biolayer interferometry (BLI) on an Octet RED 384 instrument. Briefly, cell culture supernatants were normalized to an antibody expression level of 25 μg/mL, and captured on an anti-human Fc sensor (Forte Bio). A baseline was established using 1×PBST (50 mM Potassium Phosphate Buffer+150 mM NaCl+0.05% Tween 20) pH 7.4, and the sensor was associated with 50 nM of CD33 (Sino Biological, Cat #12238) in 1×PBST pH 7.4 for 120 sec to generate an association curve. In the dissociation phase, the antibody-antigen complex on the sensor was exposed to 1×PBST pH 7.4 for 300-600 sec. Baseline, association, and dissociation were repeated using 1×MES (100 mM MES Buffer+150 mM NaCl+0.05% Tween 20) pH 5.0 throughout in a separate condition.

| binding result | Binder |
| --- | --- |
| binds | B12 |
| binds | B13 |
| binds | B14 |
| binds | B15 |
| binds | B16 |
| binds | B17 |
